Measurements published in paper doi:10.1101/2025.11.17.688911.

Key:
[1] = target: surface-immobilized biotinylated microtubules, Q2XVP4;Q767L7; experiment: fluorescence intensity of GFP-tagged MAP9 on MTs (fluorescence microscopy); conditions: 100 mM salt (stated for panel d); parent: est. 2.8; read off a plot
[2] = target: surface-immobilized biotinylated microtubules, Q2XVP4;Q767L7; experiment: fluorescence intensity of GFP-tagged MAP9-MTBD on surface-immobilized MTs (fluorescence microscopy); conditions: 100 nM MAP9 construct (stated for panel h and Extended Data Fig. 6b); parent: est. 0.72; read off a plot

Substance	response [1]	response [2]
MAP9-MTBD (Human MAP9 (302–647)::GFP::strepII) (from UniProt Q49MG5) LHEMHRIK>LAEMHAIK; …>…; LKEKNRK>LAEKNAK; FKQKEKEK>FAQKEAEK; ERIERKQ>EAIERAQ	2.8 a.u.	–
MAP9-MTBD (Human MAP9 (302–647)::GFP::strepII) (from UniProt Q49MG5) Y429A; W432A; K436A; F473A; W476A; K480A	–	0.05 a.u.
